{
  "source": "paper PMC5253651",
  "about": "“Human farnesyl pyrophosphate synthase is allosterically inhibited by its own product” (Nature Communications, 2017)",
  "proteins": {"B1": {"name": "human FPPS (Homo sapiens) (protein)", "chain": "MNGDQNSDVYAQEKQDFVQHFSQIVRVLTEDEMGHPEIGDAIARLKEVLEYNAIGGKYNRGLTVVVAFRELVEPRKQDADSLQRAWTVGWCVELLQAFFLVADDIMDSSLTRRGQICWYQKPGVGLDAINDANLLEACIYRLLKLYCREQPYYLNLIELFLQSSYQTEIGQTLDLLTAPQGNVDLVRFTEKRYKSIVKYKTAFYSFYLPIAAAMYMAGIDGEKEHANAKKILLEMGEFFQIQDDYLDLFGDPSVTGKIGTDIQDNKCSWLVVQCLQRATPEQYQILKENYGQKEAEKVARVKALYEELDLPAVFLQYEEDSYSHIMALIEQYAAPLPPAVFLGLARKIYKRRK"}},
  "substrate": "C=C(C)CCO[P@@](=O)(O)OP(=O)(O)O",
  "assay": "purified protein, by the assay type",
  "details": "other: saturating excess of GPP (∼500-fold over enzyme, 10-fold over IPP), steady-state equation accounting for product inhibition, Kp 6 μM, 30 °C, pH 7.5",
  "data": [
    {"protein": "B1", "values": [
      {"measurement": "Km", "result": 1.1, "unit": "µM"}
    ]}
  ]
}
